The text below walks through data of US20250129150A1 (APOGEE THERAPEUTICS, published 2025).

T1: Recombinant Cynomolgus IL-13 Protein, His Tag (SINO BIOLOGICAL, Cat. 11057-C07H) (cynomolgus monkey, UniProt Q5I6E4 19-132 (Macaca thibetana entry))
T1 construct: also called Cyno IL-13; cynomolgus monkey IL-13
T1 chain: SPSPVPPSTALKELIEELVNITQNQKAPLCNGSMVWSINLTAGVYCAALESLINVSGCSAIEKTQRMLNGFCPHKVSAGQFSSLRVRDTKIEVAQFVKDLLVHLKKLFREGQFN

B1: Construct 128 (antibody, human IgG4, kappa)
heavy: QVTLRESGPALVKPTQTLTLTCTVSGFSLSAYSVNWIRQPPGKALEWLAMIWGDGKIVYNSALKSRLTISKDTSKNQVVLTMTNMDPVDTATYYCAGDGYYPYAMDNWGQGSLVTVSSASTKGPSVFPLAPCSRSTSESTAALGCLVKDYFPEPVTVSWNSGALTSGVHTFPAVLQSSGLYSLSSVVTVPSSSLGTKTYTCNVDHKPSNTKVDKRVESKYGPPCPSCPAPEFLGGPSVFLFPPKPKDTLYITREPEVTCVVVDVSQEDPEVQFNWYVDGVEVHNAKTKPREEQFNSTYRVVSVLTVLHQDWLNGKEYKCKVSNKGLPSSIEKTISKAKGQPREPQVYTLPPSQEEMTKNQVSLTCLVKGFYPSDIAVEWESNGQPENNYKTTPPVLDSDGSFFLYSRLTVDKSRWQEGNVFSCSVMHEALHNHYTQKSLSLSLGK
light: DIVMTQSPDSLSVSLGERATINCRASKSVDSYGNSFMHWYQQKPGQPPKLLIYLASNLESGVPDRFSGSGSGTDFTLTISSLQAEDVAVYYCQQNNEDPRTFGGGTKVEIKRTVAAPSVFIFPPSDEQLKSGTASVVCLLNNFYPREAKVQWKVDNALQSGNSQESVTEQDSKDSTYSLSSTLTLSKADYEKHKVYACEVTHQGLSSPVTKSFNRGEC
notes: also called Lebrikizumab-HC; Lebrikizumab-LC
B2: Construct 144 (antibody, human IgG1, kappa, L234A L235A)
heavy: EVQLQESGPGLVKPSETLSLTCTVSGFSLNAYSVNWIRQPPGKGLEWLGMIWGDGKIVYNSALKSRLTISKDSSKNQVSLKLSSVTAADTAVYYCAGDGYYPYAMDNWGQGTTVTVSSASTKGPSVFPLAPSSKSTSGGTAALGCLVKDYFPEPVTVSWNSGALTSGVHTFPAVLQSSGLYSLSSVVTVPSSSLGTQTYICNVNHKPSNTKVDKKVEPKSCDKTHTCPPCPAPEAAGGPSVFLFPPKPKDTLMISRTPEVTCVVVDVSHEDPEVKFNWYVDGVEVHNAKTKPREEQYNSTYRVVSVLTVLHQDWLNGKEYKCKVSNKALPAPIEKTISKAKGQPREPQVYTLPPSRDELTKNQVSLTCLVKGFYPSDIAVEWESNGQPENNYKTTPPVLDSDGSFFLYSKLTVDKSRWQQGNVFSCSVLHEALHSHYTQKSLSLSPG
light: DIQLTQSPSSLSASVGDRVTITCRASKSVDSYGNSFMHWYQQKPGKAPKLLIYLASELESGVPSRFSGSGSGTDFTLTISSLQPEDFATYYCQQNNEDPRTFGGGTKVEIKRTVAAPSVFIFPPSDEQLKSGTASVVCLLNNFYPREAKVQWKVDNALQSGNSQESVTEQDSKDSTYSLSSTLTLSKADYEKHKVYACEVTHQGLSSPVTKSFNRGEC
notes: also called HC1; LC6_m8
B3: Construct 140 (antibody, human IgG1, kappa, L234A L235A)
heavy: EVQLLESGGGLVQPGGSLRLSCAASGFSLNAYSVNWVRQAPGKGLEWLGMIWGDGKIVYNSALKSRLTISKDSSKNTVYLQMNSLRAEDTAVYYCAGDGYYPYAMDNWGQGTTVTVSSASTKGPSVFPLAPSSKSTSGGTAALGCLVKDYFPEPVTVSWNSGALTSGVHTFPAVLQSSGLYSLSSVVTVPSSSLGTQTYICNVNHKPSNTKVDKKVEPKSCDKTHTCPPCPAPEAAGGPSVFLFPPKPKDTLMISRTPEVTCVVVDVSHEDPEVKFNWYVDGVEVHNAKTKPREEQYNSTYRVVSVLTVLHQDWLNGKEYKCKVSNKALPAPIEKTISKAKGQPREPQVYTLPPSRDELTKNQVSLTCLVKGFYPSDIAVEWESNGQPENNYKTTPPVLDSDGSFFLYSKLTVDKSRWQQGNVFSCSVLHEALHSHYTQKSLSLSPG
light: B2 light
notes: also called HC5; LC6_m8
B4: Tralokinumab (antibody, V domains shown)
VH: QVQLVQSGAEVKKPGASVKVSCKASGYTFTNYGLSWVRQAPGQGLEWMGWISANNGDTNYGQEFQGRVTMTTDTSTSTAYMELRSLRSDDTAVYYCARDSSSSWARWFFDLWGRGTLVTVSS
VL: SYVLTQPPSVSVAPGKTARITCGGNIIGSKLVHWYQQKPGQAPVLVIYDDGDRPSGIPERFSGSNSGNTATLTISRVEAGDEADYYCQVWDTGSDPVVFGGGTKLTVL
B5: Construct 138 (antibody, human IgG4, kappa)
heavy: EVQLLESGGGLVQPGGSLRLSCAASGFSLNAYSVNWVRQAPGKGLEWLGMIWGDGKIVYNSALKSRLTISKDSSKNTVYLQMNSLRAEDTAVYYCAGDGYYPYAMDNWGQGTTVTVSSASTKGPSVFPLAPCSRSTSESTAALGCLVKDYFPEPVTVSWNSGALTSGVHTFPAVLQSSGLYSLSSVVTVPSSSLGTKTYTCNVDHKPSNTKVDKRVESKYGPPCPSCPAPEFLGGPSVFLFPPKPKDTLYITREPEVTCVVVDVSQEDPEVQFNWYVDGVEVHNAKTKPREEQFNSTYRVVSVLTVLHQDWLNGKEYKCKVSNKGLPSSIEKTISKAKGQPREPQVYTLPPSQEEMTKNQVSLTCLVKGFYPSDIAVEWESNGQPENNYKTTPPVLDSDGSFFLYSRLTVDKSRWQEGNVFSCSVMHEALHNHYTQKSLSLSLGK
light: B2 light
notes: also called HC5; LC6_m8
B6: Construct 143 (antibody, human IgG4, kappa)
heavy: EVQLQESGPGLVKPSETLSLTCTVSGFSLNAYSVNWIRQPPGKGLEWLGMIWGDGKIVYNSALKSRLTISKDSSKNQVSLKLSSVTAADTAVYYCAGDGYYPYAMDNWGQGTTVTVSSASTKGPSVFPLAPCSRSTSESTAALGCLVKDYFPEPVTVSWNSGALTSGVHTFPAVLQSSGLYSLSSVVTVPSSSLGTKTYTCNVDHKPSNTKVDKRVESKYGPPCPSCPAPEFLGGPSVFLFPPKPKDTLMISRTPEVTCVVVDVSQEDPEVQFNWYVDGVEVHNAKTKPREEQFNSTYRVVSVLTVLHQDWLNGKEYKCKVSNKGLPSSIEKTISKAKGQPREPQVYTLPPSQEEMTKNQVSLTCLVKGFYPSDIAVEWESNGQPENNYKTTPPVLDSDGSFFLYSRLTVDKSRWQEGNVFSCSVLHEALHSYTQKSLSLSLGK
light: B2 light
notes: also called HC1; LC6_m8
B7: Construct 139 (antibody, human IgG4, kappa)
heavy: EVQLLESGGGLVQPGGSLRLSCAASGFSLNAYSVNWVRQAPGKGLEWLGMIWGDGKIVYNSALKSRLTISKDSSKNTVYLQMNSLRAEDTAVYYCAGDGYYPYAMDNWGQGTTVTVSSASTKGPSVFPLAPCSRSTSESTAALGCLVKDYFPEPVTVSWNSGALTSGVHTFPAVLQSSGLYSLSSVVTVPSSSLGTKTYTCNVDHKPSNTKVDKRVESKYGPPCPSCPAPEFLGGPSVFLFPPKPKDTLMISRTPEVTCVVVDVSQEDPEVQFNWYVDGVEVHNAKTKPREEQFNSTYRVVSVLTVLHQDWLNGKEYKCKVSNKGLPSSIEKTISKAKGQPREPQVYTLPPSQEEMTKNQVSLTCLVKGFYPSDIAVEWESNGQPENNYKTTPPVLDSDGSFFLYSRLTVDKSRWQEGNVFSCSVLHEALHSYTQKSLSLSLGK
light: B2 light
notes: also called HC5; LC6_m8
B8: Construct 132 (antibody, human IgG1, kappa, L234A L235A)
heavy: EVQLLESGGGLVQPGGSLRLSCAASGFSLNAYSVNWVRQAPGKGLEWLGMIWGDGKIVYNSALKSRLTISKDSSKNTVYLQMNSLRAEDTAVYYCAGDGYYPYAMDNWGQGTTVTVSSASTKGPSVFPLAPSSKSTSGGTAALGCLVKDYFPEPVTVSWNSGALTSGVHTFPAVLQSSGLYSLSSVVTVPSSSLGTQTYICNVNHKPSNTKVDKKVEPKSCDKTHTCPPCPAPEAAGGPSVFLFPPKPKDTLYITREPEVTCVVVDVSHEDPEVKFNWYVDGVEVHNAKTKPREEQYNSTYRVVSVLTVLHQDWLNGKEYKCKVSNKALPAPIEKTISKAKGQPREPQVYTLPPSRDELTKNQVSLTCLVKGFYPSDIAVEWESNGQPENNYKTTPPVLDSDGSFFLYSKLTVDKSRWQQGNVFSCSVMHEALHNHYTQKSLSLSPG
light: B2 light with E57N
notes: also called HC5; LC6

Where a chain is given by its changes, count along the chain named.

Chain of biotinylated hIL-13 (P35225 other isoform, or with tags, fused parts or gaps limits assumed): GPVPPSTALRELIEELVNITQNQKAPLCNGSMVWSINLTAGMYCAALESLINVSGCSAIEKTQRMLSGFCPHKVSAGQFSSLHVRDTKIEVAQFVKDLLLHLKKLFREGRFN

In one experiment the target is T2, hIL-13 (human, UniProt P35225 35-146, limits assumed).
T2 construct: IL-13 as used in the cell assays, the ELISA, the binning study and HDX-MS/XL-MS; also called human IL-13; Hu IL-13
T2 sequence (P35225 other isoform, or with tags, fused parts or gaps limits assumed): as above
Nature of the experiment: ELISA.
B1 had a Kd of 0.067 nM.
B2 yielded a Kd of 0.014 nM.
Still for that read-out and setting: then B3, with 0.02 nM.

In a further experiment the target is T2, hIL-13. Nature of the experiment: cell-based or functional assay.
As to B4, the “pSTAT6 Inhibition IC50 (HT-29 cells)” value amounted to 0.41 nM.
For the molecule B1, the “pSTAT6 Inhibition IC50 (HT-29 cells)” value is 0.28 nM.
On the same count and under the same terms, to B2 belongs 0.3 nM; to B5, 0.19 nM.
Consider B6, for which the “pSTAT6 Inhibition IC50 (HT-29 cells)” value was 0.36 nM.
Still for that read-out and setting: then B7, with 0.28 nM.
On the same count and under the same terms, to B8 belongs 0.37 nM; to B3, 0.33 nM.

The target in a further experiment is T2, hIL-13. As to the kind of experiment: cell-based or functional assay. This is another data set of the same source.
For the molecule B4, the “TARC Inhibition IC50 (A549 cells)” value stood at 4.14 nM.
Same read-out and setting: then B1, with 1.01 nM; and B2, with 0.91 nM; and B5, with 0.97 nM.
Still for that read-out and setting: then B6, with 0.92 nM.
Same read-out and setting: to B7 belongs 1.02 nM; to B8, 0.87 nM.
As for B3, the “TARC Inhibition IC50 (A549 cells)” value came to 0.94 nM.

A further experiment concerns the target T2, hIL-13. As to the kind of experiment: cell-based or functional assay. This is another data set of the same source.
As for B4, the “TF-1 Proliferation Inhibition IC50” value is 0.59 nM.
The same measure, in the same setting: then B1, with 0.2 nM; and B2, with 0.17 nM; and B5, with 0.23 nM.
Turning to B6, the “TF-1 Proliferation Inhibition IC50” value came out at 0.17 nM.
Same read-out and setting: to B7 belongs 0.2 nM; to B8, 0.13 nM; to B3, 0.14 nM.

For another experiment, the target named is T3, Recombinant Human IL-13 Protein, His Tag (Acro Cat. IL3-H52H4) (human, UniProt P35225 35-146).
T3 construct: Bought protein; also called Hu IL-13; not shown: His Tag
T3 sequence (P35225 other isoform, or with tags, fused parts or gaps limits assumed): as above
Nature of the experiment: SPR (Biacore 8K), mAb captured on Protein G chip, IL-13 as analyte. As to the method: (§1) Samples were injected in a multi-cycle manner over freshly captured mAb, by regenerating the capture surfaces with injection of glycine pH 1.5 for 30 sec at a flow rate of 30 μL/min. The data was processed and analyzed with Biacore Insight Evaluation Software Version 2.0.15.12933 (GE Healthcare) as follows. […] The responses from the two buffer blank injections were then subtracted from the reference subtracted data (2-1) to yield double-referenced data, which were fit to an 1:1 binding model to determine the apparent association (ka) and dissociation rate constants (kd). Their ratio provided the apparent equilibrium dissociation constant or affinity constant (KD=kd/ka).
On to B4, for which the Kd worked out at 0.116 nM.
Same read-out and setting: to B1 belongs 0.0915 nM; to B2, 0.0263 nM; to B5, 0.108 nM.
As for B6, the Kd is 0.119 nM.
On to B7, for which the Kd turned out to be 0.114 nM.
B8: the Kd is 0.135 nM.
Same read-out and setting: then B3, with 0.0475 nM.

Another experiment deals with T1, Recombinant Cynomolgus IL-13 Protein, …. Described as above. The protocol: as §1
Turning to B4, the Kd stood at 1.48 nM.
On the same count and under the same terms, to B1 belongs 0.298 nM; to B2, 0.228 nM.
Same read-out and setting: to B5 belongs 0.348 nM; to B6, 0.685 nM; to B7, 0.705 nM.
Take B8: the Kd worked out at 0.331 nM.
As to B3, the Kd stood at 0.252 nM.

Another experiment concerns the target biotinylated hIL-13 (human, UniProt P35225 35-146, limits assumed, biotinylated (site not stated)). As to the kind of experiment: FACS; blockade of biotinylated hIL-13 (0.05 ug/mL) binding to HEK293 cells expressing hIL-13Rα1/hIL-4Rα. As to the method:
Briefly, HEK293 previously transduced to stably express both hIL-13Rα and hIL-4Rα were cultured and harvested. Cells were seeded at 200,000 cells in 100 uL per well. Cells were washed and the supernatant was discarded. […] The cells were stained in this mixture at 4° C. for 1 hour. […] Cells were incubated at 4° C. for 1 hour, protected from light. Cells were then washed and the median fluorescence intensity (MFI) of cells in each well were recorded by FACS using a BD FACSCanto II. Subsequent data were analyzed using GraphPad Prism.
Consider B1, for which the IC50 stood at 0.95 nM. This counts as sub-nanomolar.
On the same count and under the same terms, to B2 belongs 0.94 nM; to B5, 1.01 nM; to B6, 0.74 nM.
The same measure, in the same setting: to B7 belongs 1.09 nM; to B8, 0.99 nM.
